Measured values published in the nanobody polyreactivity screen of Harvey et al. (2022).

Assay: yeast display, Sf9 membrane polyspecificity reagent, FACS + sequencing; frameworks hold sequencing errors
How it was run: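 A synthetic nanobody library was expressed on Saccharomyces cerevisiae BJ5465 by galactose induction for 36–48 hours. The library was stained for 1 hour at 4 °C with 10% biotinylated, detergent-solubilized Sf9 membrane reagent and enriched with streptavidin microbeads before FACS. Low and high (top ~1%) gates were set on anti-HA fluorescence for expression and streptavidin fluorescence for reagent binding, and each polyreactivity label reflects the gate of origin.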

Sequence | polyreactivity (PSR sort gate)
QVQLVESGGGLVQAGGSLRLSCAASGGTFYAYAMGWYRQAPGKERELVAAITSGGRTYYADSVKGRFTISRDNAKNTVYLQMNSLKPEDTAVYYCAAKYFRGVKRDYWGQGTQVTVSS | high polyreactivity
QVQLVESGGGLVQAGGSLRLSCAASGIIIWTNVMGWYRQAPGKEREFVAAISRSGGSTYYADSVKGRFTISRDNAKNTVYLQMNSLKPEDTAVYYCAARLSYSVQKFDYWGQGTQVTVSS | high polyreactivity
QVQLVESGGGLVQAGGSLRIICAASGSTFTWNDMRWYRQAPGKERELVAGISLSAGSTYYADSVKGRFTISRDNAKNTDYLQMKSLKPEHTAVYYCNADPGGPDTYEEHDYWGQGTQVTVSS | low polyreactivity
QVQLEESGGGLGQAGGSLRLTCAASGSIFDTYTMGWYRQATRIEWELVAAITSGTTTTYADSVKGRFTISRDNGLNTVYLKINSLNPEDTAVYYCGARTSGSFDYWGQGPQVTVSS | low polyreactivity
QVQLGESGGGLVQAGGSLRLSCAASGRTFYSYAMGWYRHAPWKERELVAAISASGGRTYYADSVKGRFTISRDNEKNTVYLQMNSLKPEDTAVYYCAAYPWYRMWGQGTQVTVSS | high polyreactivity
QVQLVESGGGLVQAGGSLRLSCAASGFTFAWYTMGWYRQAPGKERELVAAITDSGDSTYYADSVKGRFTISRDNAKNTVYLQMNSLKPEDTAVYYCATRTWYWDIWITEYDYWGQGPQVTVSS | low polyreactivity
QVQLVESGGGLVQAGGSLRLSCAASGSIFAEYAMGWYRQAPGKERELVAAITTSGSTNYADSVKGRFTISRDNAKNTVYLQMNSLKPEDTAVYYCNALFQQRYLDSSGEYWGQGTQVTVSS | low polyreactivity
QVQLVESGGGLVQAGGSLRLSCAASGSTYGYYTMGWYRQAPGKERELVAAITWSGGSTYYADSVKGRFTISRDIAKNTVYLQMNSLKPEDTAVYYCAADDYWTPFGYWGQCTQVTVSS | low polyreactivity
QVQLVESGGGLVQAGGSLRLSCAASGFIFRYYAMGWYRQAPGKERELVAAITRSGDNTYYADSVKGRFTISRDNAKNTVYLQMNSLKPEDTAVYYCAARDVQYQQALGGDYWGQGTQVTVSS | low polyreactivity
QVHLVESGGCLVQAGGSLRLSCAASGYIIGINAMACYRQAPRKESELVPAISRSGGSTYYAESVKGRFTISRDNAKNTVYLQMNSLKPEDTAVYYCASDILRFYSDTYGTEYWGQGTQVTVSS | high polyreactivity
QVQLVDSGGGLVQAGGSLRLSCAASGRTIRYNAMGWYRQAPGKERELVAVINSNGGSTYYADSVKGRFTISRDNSKNTVYLQMNSLKPEDTAVYYCAADYIRIQEYDYWGQGTQVTVSS | low polyreactivity
QVQLVESGGGLVKAGGSLRLSCAASGFTFYTYTMGWYRQAPGKERELVAVISRSGGSTYYADSVKGRFTISRDNAKNTVYLQMNSLKPEDTAVYYCNAGYWRFIDSYDYWGQGTQVTVSS | high polyreactivity
QVQLVESGGGLVQAGGSLRLSCAASGRTFYLYTMGSSRQAPGKERELVAAITGGGRTYYADSVKGRFTISRDNAKNTVYLQMNSLKPEDTAVYYCNADYAYYSYDYWGQGTQVTVSS | low polyreactivity
QVQLVESGGGLVQAGGSLRLSCAASGRTFGYNAMGWYRQAPGKERELVAAISWRSGGTYYADSVKGRFTISRDNANNSVYLQMISLKPEDTAVYYCARRSPHHGRDYWGQGTQVTVSS | low polyreactivity
QVQLVESGGGIVQAGGSLRLSCAASGRIFGYYAMGWYIQAPGNERELVASISSSGGSTYYADSVKGRFTISRDNAKNTVYLQMKSLKPEDTAVYYCNTASNRYQGWRAEFDYWGQGSQVTVSS | low polyreactivity
HVQLGESGGGLVQAGGSLRLSCAASGSTFFPYAMGRYRQAPGKEMELVAAISYSGDSTYYADSVKGRFTISRDTAKNTVYLQMNSLKPEDNAVYYCNAVYFRYRYKYWGQGSQVTVSS | high polyreactivity

Sequence | polyreactivity (PSR sort gate)
QVQLVESGGGLVQAGGSLRLSCAASGRTSVINAMGWYRQAPGKERELVATITWSGASTYYADSVKGRFTISRDNAKNTLYLQMNSLKPEVTAVYYCATDSAQYGYDYWGQGTQVTVSS | low polyreactivity
QVQLVESGGGLVQAGGRLRLSCAASGNIFLDYTLGWYRQAPGKERELVAAISRGGSTYYADSVKGRFTISRDNAKNTVYLQMNSLKPEDTAVYYCNARCWEYFAHNYWGQGTQVTVSS | low polyreactivity
QVQHEESGGGLVQAGGSLRLSCAASGSIFLHYAIGWYRQAPGKERVFVAAISFRSGSTYYADSVKGRFTISRDNAKNTVYLKLNSLKPEDTAVYYCASKSYNFIPGIREYDYWGQGTQVTVSS | low polyreactivity
QVQHVESGGGLLQAGGSLRLSCPASGRTFTVYALGWYRQAPGKDRELVAAFSRSGGRTYYADSVKGRFTISRDNAKNTVYLQRNSLKPEDTAVYYCAADDPYRTNDFDYWGQGTQVTVSS | high polyreactivity
QVHLEESGAGLVQAGGSLRISCAASGFIFDYYAMGWYRQAPGKERELVATITSRGGSTYYADSVKGRFTISRDNAKNTVSLQMNRLKPDYNGVYYCAAVSHPGRKYYYWGQGTQVTVSS | high polyreactivity
QVQLVESGGGLVQAGGSLRLSCAASGRTFTRYAMGWYRQAPGKERELVAAISVRAGITYYADSVKGRFTISRDNAKNTVYLQMNSLKPEDTAVYYCAAKDGRSYYDRTPMVYFGQGTQVTVSS | low polyreactivity
QVQLVESGGGLVQAGGSLRLSCAASGSTFSPYVMGWYRQAPGKERELVAAITSGGITNYADSVKGRFTISRDNAKNTVYLQMNSLKPEDTAVYYCNVDRYIRDSWGDYWGQGTQVTVSS | high polyreactivity
QVQLVDSGGGLVQAGGSLRLSCAASGLIFYHNTMGWSRQAPGKEREFVASISQSGGSTYYADSVKGRFTISRDNAKNTVYLQMNSLKPEDTAVYYCAKKVRRWRTMDYWGQGTQVTVSS | high polyreactivity
QVQRVESGGGLVQAGGSLRLSCAASGSTFARYAMGWYRQAPGKEREFVAAITYSGGRTYYADTVKGRFTISRDNAKNTVYLQMNSLKPEDTAVYYCAARRRYRYDYWGQGTQVTVSS | high polyreactivity
KVQLVESGGGLVQAGGSLRLSCAASGFIFLGYAMGWYRQAPGKEREFVAVISRSGVRTYYADSVKGRFTISRDNAKNTVYLQMNSLKPEDTAVYYCAARYYSTDLEYWGQGTQVTVSS | high polyreactivity
QVQLGESGGGLVQAGGSLRLSCAPSGSIFGYYSMGWYRQAPGKERELVATITLSDDSTYYAVSVKGRFTISRDNAKITVYLQMNSLKPEDTAVYYCAAVRITRYQWDRSVGSGDYWGQGTQVTVSS | high polyreactivity
QVQLVESGGGLVQAGGSLRLSCAASGTFYLYAMGWYRQAPGKERELVAAISGSGSTNYADSVKGRFTISRDNAKNTVYLQMNSLKPEDTAVYYCAAYQRYDSVTGARYEYDYWGQGTQVTVSS | low polyreactivity
QVQLVESGGGLVQAGGSLRLSCAASGRIFHRYAMGWDRQAPGKERELVAAINWRTGNTYYADSVKGRFTISRDNAKNTVYLQMNSLTPEDTAVYYCNARYRSDYWGIQYDYWGQGTQVTVSS | high polyreactivity
QVQLEESGGGLVQAGGSLRLSCAASGAIFDGYGMGGYSQAPGQERELVAAIRWGDGITYYADSVKGRFTISRDNAKTTVYLQMNRLKPDDTAVYYCAAVQHGHEPRVQASYDYWGQGTQVTVSS | low polyreactivity
QDQLGESGGGLVQAGGSLRLSCAASGFTFWWYAMGWYRQAPGKERELVAGITSGASTYYADSVKGRYTISRDNAKNTVYIQMNSLKPEDTAVYYCAADWLGWYQPYDYWGQGTQVTVSS | low polyreactivity
QVQLVESGGGLVQAGGRLRLSCAASGSTFARNAMGWYRQAPGKERELVPAISRGGSTYYADSVKGRFTISRDNAKNTVYLEMNSLKPEDTAVYYCAVYNFHYGYVWYPYDYWGQGTEVTVSS | high polyreactivity
